Reference: US20260049143A1 (KYMAB, published 2026)

T1: mouse ICOS-mFc (Chimerigen) (mouse, UniProt Q9WVS0 21-141, limits assumed)
T1 construct: Bought fusion; also called mICOS; recombinant mouse ICOS protein; not shown: mouse Fc
T1 sequence: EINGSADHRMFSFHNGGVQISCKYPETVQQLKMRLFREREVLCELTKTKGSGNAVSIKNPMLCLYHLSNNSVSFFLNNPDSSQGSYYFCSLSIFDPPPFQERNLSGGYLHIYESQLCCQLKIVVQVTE

T2: human ICOS-mFc (Chimerigen) (human, UniProt Q9Y6W8 21-140, limits assumed)
T2 construct: Bought fusion; also called hICOS; recombinant human ICOS protein; not shown: mouse Fc
T2 sequence: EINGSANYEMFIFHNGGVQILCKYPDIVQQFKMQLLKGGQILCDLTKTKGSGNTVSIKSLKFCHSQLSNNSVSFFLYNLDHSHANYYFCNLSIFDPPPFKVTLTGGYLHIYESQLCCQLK


Tests used:
[1] = biological target: T1, mouse ICOS-mFc (Chimerigen); assay: DELFIA ELISA, coated mouse ICOS-mFc, N=3
Protocol: (§1) Recombinant ICOS proteins, human ICOS-mFc or mouse ICOS-mFc (Chimerigen) were diluted in 1×PBS and added to Black Hi-bind plates (Griener) at 1 μg/ml, 50 μl/well. Recombinant PD-L1 proteins, human PD-L1-Flag-His or mouse-His were diluted in 1×PBS and added to Black Hi-bind plates (Griener) at 4 μg/ml, 50 μl/well. The plates were left overnight at 4° C. The next day plates were washed 3× with 300 μl/well of 1×PBS+0.1% Tween and blocked with 200 μl/well of 1×PBS+1% BSA blocking buffer for 1 hr at RT on a plate shaker. Plates were washed 3× with 300 μl/well of 1×PBS+0.1% Tween.
(§2) However, human-PD-L1 mAb² antibodies were diluted in 1×PBS+0.1% BSA buffer and diluted 1 in 2 from a starting working concentration of 0.066 μM over an 11 point titration. Titrated antibodies were added to the plates, 50 μl/well and left to incubate for 1 hr at R.T on a plate shaker. Plates were washed 3× with 300 μl/well of 1×PBS+0.1% Tween.
(§3) DELFIA® Eu-labelled Anti-human IgG(Perkin-Elmer) was diluted 1:500 in DELFIA Assay buffer (Perkin-Elmer) and added to the assay plate (50 μl/well), left to incubate for 1 hr at RT on a plate shaker. […] After incubation, assay was read on Envision plate reader (Perkin Elmer), Time-resolved fluorescence (TRF) was measured at 615 nm.

[2] = biological target: T1, mouse ICOS-mFc (Chimerigen); assay: DELFIA ELISA, coated mouse ICOS-mFc, mean
Protocol: as §1, §2, §3

[3] = biological target: T2, human ICOS-mFc (Chimerigen); assay: DELFIA ELISA, coated human ICOS-mFc, N=2
Protocol: as §1, §2, §3

[4] = biological target: T1, mouse ICOS-mFc (Chimerigen); assay: HTRF neutralisation of mouse B7-H2 binding to mouse ICOS-mFc, n3
Protocol: (§4) 5 μl of human ICOS-mFc (Chimerigen) at 20 nM (5 nM final) or 5 μl of mouse ICOS-mFc (Chimerigen) at 4 nM (1 nM final) were added to relevant assay wells. Plate was incubated for 1 hour (hr) at room temperature (RT).
(§5) After incubation, assay was read on Envision plate reader (Perkin Elmer) using a standard HTRF protocol. 620 nm and 665 nm channel values were exported to Microsoft Excel and % Delta-F and % Neutralisation calculations performed. Titration curves and IC50 values [M] were plotted using Graphpad (Prism). IC50 values were calculated by first transforming the data using equation X=Log(X). The transformed data was then fitted using nonlinear regression, using fitting algorithm, log (inhibitor) vs. response-variable slope (four parameters).

[5] = biological target: T1, mouse ICOS-mFc (Chimerigen); assay: HTRF neutralisation of mouse B7-H2 binding to mouse ICOS-mFc, average
Protocol: as §4, §5

EC50 [1] | EC50 [2] | EC50 [3] | IC50 [4] | IC50 [5] | Binder
0.288 nM | 0.289 nM |  |  |  | STIM003_457 (bispecific antibody, V domains shown, not shown: a dimerising Fc or GST, mAb^2 IgG1; also called ST1M003_457; STIM003_457 mAb^2) VH: EVQLVESGGGVVRPGGSLRLSCVASGVTFDDYGMSWVRQAPGKGLEWVSGINWNGGDTDYSDSVKGRFTISRDNAKNSLYLQMNSLRAEDTALYYCARDFYGSGSYYHVPFDYWGQGILVTVSS VL: EIVLTQSPGTLSLSPGERATLSCRASQSVSRSYLAWYQQKRGQAPRLLIYGASSRATGIPDRFSGDGSGTDFTLSISRLEPEDFAVYYCHQYDMSPFTFGPGTKVDIK
 |  | 15.3 nM | 6.32 nM | 5.07 nM | STIM001_457 (bispecific antibody, V domains shown, not shown: a dimerising Fc or GST, mAb^2 IgG1; also called STIM001_457 mAb^2) VH: QVQVVQSGAEVKKPGASVKVSCKASGYTFSTFGITWVRQAPGQGLEWMGWISAYNGDTNYAQNLQGRVIMTTDTSTSTAYMELRSLRSDDTAVYYCARSSGHYYYYGMDVWGQGTTVTVSS VL: DIVMTQSPLSLPVTPGEPASISCRSSQSLLHSNEYNYLDWYLQKPGQSPQLLIFLGSNRASGVPDRFSGSGSGTDFTLKITRVEAEDVGIYYCMQSLQTPLTFGGGTKVEIK
